In assay [1] the target is Glycine oxidase from Pseudoalteromonas luteoviolacea CPMOR-2 (PlGoxA) (Pseudoalteromonas luteoviolacea CPMOR-2). Briefly: crystal structure.
Assay [2] shares this target. Briefly: SEC. A general note: SEC sorts molecules by how far they enter the pores of the column.

On to “Glycine oxidase from Pseudoalteromonas luteoviolacea CPMOR-2 (PlGoxA) (enzyme)”, for which the stoichiometry N in assay [1] and in assay [2] was 4 in each case.

The record behind these values is article PMC5886718.
